Source: the DeepSol protein solubility set

assay: soluble on expression in E. coli; label from the status in PepcDB or PDB records

**Q.** With “GLAIEGPSEAKMSCKDNKDGSCTVEYIPFTPGDYDVNITFGGRPIPGSPFRVPVKDVVDPGKVKCSGPGLGAGVRARVPQTFTVDCSQAGRAPLQVAVLGPTGVAEPVEVRDNGDGTHTVHYTPATDGPYTVAVKYADQEVPRSPFKIKVLPAHDASKVRASGPGLNASGIPASLPVEFTIDARDAGEGLLTVQILDPEGKPKKANIRDNGDGTYTVSYLPDMSGRYTITIKYGGDEIPYSPFRIHALPTGDASKCLVTVSIGGHGLGACLGPRIQIGQETVITVDAKAAGEGKVTCTVSTPDGAELDVDVVENHDGTFDIYYTAPEPGKYVITIRFGGEHIPNSPFHVLACDPLPHEEEPSEVPQLRQPYAPPRPGARPTHWATEEPVVPVEPMESMLRPFNLVIPFAVQKGELTGEVRMPSGKTARPNITDNKDGTITVRYAPTEKGLHQMGIKYDGNHIPGSPLQFYVDAINSRHVSAYGPGLSHGMVNKPATFTIVTKDAGEGGLSLAVEGPSKAEITCKDNKDGTCTVSYLPTAPGDYSIIVRFDDKHIPGSPFTAKITGDDSMRTSQLNVGTSTDVSLKITESDLSQLTASIRAPSGNEEPCLLKRLPNRHIGISFTPKEVGEHVVSVRKSGKHVTNSPFKILVGPSEIGDASKVRVWGKGLSEGHTFQVAEFIVDTRNAGYGGLGLSIEGPSKVDINCEDMEDGTCKVTYCPTEPGTYIINIKFADKHVPGSPFTVKVTGEGRMKESITRRRQAPSIATIGSTCDLNLKIPGNWFQMVSAQERLTRTFTRSSHTYTRTERTEISKTRGGETKREVRVEESTQVGGDPFPAVFGDFLGRERLGSFGSITRQQEGEASSQDMTAQVTSPSGKVEAAEIVEGEDSAYSVRFVPQEMGPHTVAVKYRGQHVPGSPFQFTVGPLGEGGAHKVRAGGTGLERGVAGVPAEFSIWTREAGAGGLSIAVEGPSKAEIAFEDRKDGSCGVSYVVQEPGDYEVSIKFNDEHIPDSPFVVPVASLSDDARRLTVTSLQETGLKVNQPASFAVQLNGARGVIDARVHTPSGAVEECYVSELDSDKHTIRFIPHENGVHSIDVKFNGAHIPGSPFKIRVGEQSQAGDPGLVSAYGPGLEGGTTGVSSEFIVNTLNAGSGALSVTIDGPSKVQLDCRECPEGHVVTYTPMAPGNYLIAIKYGGPQHIVGSPFKAKVTGPRLSGGHSLHETSTVLVETVTKSSSSRGSSYSSIPKFSSDASKVVTRGPGLSQAFVGQKNSFTVDCSKAGTNMMMVGVHGPKTPCEEVYVKHMGNRVYNVTYTVKEKGDYILIVKWGDESVPGSPFKVKVP” as the sequence, how does the “soluble on expression in E. coli” value read?
**A.** soluble

**Q.** Which “soluble on expression in E. coli” value does the source give for “MAHHHHHHMIMKKLIENNVIKLNYENFLTKYKLNSGNEQKDLSDEELYEHFIINTFNYSKPLGCLPPNISNIKEYYLDGINIFEVINYVNISERMYKFENITEEDDKENEDDSKEIFSHSEPDEKHDCEIKSRKNNKNSKISNNNKKDGNNIKSNKYRRFYRFLLYDGKSFIYAYEQEYNEIFTYLESNKYIYPKIILYNKPLIRRGAILLKKNQVIILFKGCIVSGNDTEDNEIEDFPIISESNNINSGVHQNIHDDLYTTRNTYDNKNMTDDSHNLIRKFYYADKGMEKEEYKTYYENTNNCGVLSNTNRSNEYYSRSSMHNNNNYSFNEYAKHNYKYDQNHVKKNIEYYYNKDKNCYITSIDYNNNNNNNNNSINNSNNEYTGNNYNNNNKGNHYYYHNIHNNHMHDTHNSKNYIGSNRYNTDKASYNYYNNHYKNKQHYIDPQRNNYYTHGINHDDYSKENYLNAFEYKNHNSYKEPLRNYSNDHPRNSYNKNKYNIFNENKRNSSSKNNRNSSSKNNRNSSNKNNRNSSKEYFKRNSNKFDNAYDNTYHDNNTRINHHSDFSRKNNDGFYRNNDNNYNNETYVKNHFSNEAKYNAGYQRLSDNLENRNRMNCENNNNYYSTYGHSDYNVNYNNKNNRNIPLSNLNEKNNHIPSNNYYTENYLPEKEGNRNILTNQINNYSINSVNNNFEQINPSTCNYNKNNVFPYNKEDDKNKFVEMKNVEEEYHNDNQERARKNSENSKKLIDLTEGFFSSEFFHKSYECNDVNKNSDIIILDD” here?
**A.** soluble

**Q.** With “MPTKLSNKYHDEIEQNGFTVVRNFLSPQEIEKYTKASEALVQYARDGNWPHVRTRGKQFPPWPKNFSPDIWGVSGLLHPDLGELSKPFHDLYSDEKLLNVVCDILLIEKTDLSMELLNMLINPLTDFELDWHRDTIKPEVTPEEEAEDLLKFPYAGAQFNLALTEDDCLIAIPGSHNRVRTTEEREKTIDPNRRKEFITGEIRVQLQPGDLVFYNNNILHRAAYSSKNKRLTLHGSYGNVNQGKSRAKGILQHGVAEWLPRLETKNTNLKMLQEKLLNLAKEFEGVELGYALDG” as the sequence, how does the “soluble on expression in E. coli” value read?
**A.** soluble

**Q.** Which “soluble on expression in E. coli” value does the source give for “LPKVSEDHLAARRSQILDGARRCFAEYGYDGATVRRLEEVTGLSRGAIFHHFKDKDGLFLALAHEDATRMADVVAHEGLVQVMRDMLAQPEQFDWLGTRLEIARRLRNDPDFRRSWSQRSAELTEATMARLARQKSAGRLRDDVPTDVLIGYLDLVLDGLVARIASGHAGDNLSAVLDLVEESVRRRD” here?
**A.** not soluble

**Q.** With “LGASWHRPDKCCLGYQKRPLPQVLLSSWYPTSQLCSKPGVIFLTKRGRQVCADKSKDWVKKLMQQLPVTAR” as the sequence, how does the “soluble on expression in E. coli” value read?
**A.** soluble

**Q.** Which “soluble on expression in E. coli” value does the source give for “MGKKKVKFLQKEELRTLLQSLDLQSGINNDWFLLLIAKTGMRYAEALALTPSDFDWVNATVTIDKSWDYKTHRGFKKTKSTASDREIAIDWQIVGQFKPLIQDLPANDPIFIEKTERGTYKKQYNSTMNNYLEAKCKTLTITVISLHALRHTHASVLLAEGVSIHTISARLGHADVGVTQEIYAHVLDELQKKDDQKMMSVLMQIALEHHHHHH” here?
**A.** not soluble

**Q.** Which “soluble on expression in E. coli” value does the source give for “PEYQANVQILVNRKHSSAGADLTGQQADVQMITTYKELITKPVVLKPARQTLMAETDIRRSLESLKQTVSVTSTANSQVFSIGVRDKNAKASAMIANQIAATFKDQVQHIIKVNNVTIVAPAETPDQSVAPKK” here?
**A.** not soluble

**Q.** Which “soluble on expression in E. coli” value does the source give for “MGHHHHHHSHMEEKFEDRSPAAECLSEKETEELMAWMRNVLGSRVTNVKVTLRLDTHPAMVTVLEMGAARHFLRMQQLAKTQEERAQLLQPTLEINPRHALIKKLNQLRASEPGLAQLLVDQIYENAMIAAGLVDDPRAMVGRLNELLVKALERH” here?
**A.** soluble

**Q.** For “AASPPTEEAVVATEPLTREDLIAYLASGCKSKEKWRIGTEHEKFGFEVNTLRPMKYDQIAELLNSIAERFEWEKVMEGDKIIGLKQGKQSISLEPGGQFELSGAPLETLHQTCAEVNSHLYQVKAVAEEMGIGFLGMGFQPKWRREDIPTMPKGRYDIMRNYMPKVGSLGLDMMLRTCTVQVNLDFSSEADMIRKFRAGLALQPIATALFANSPFTEGKPNGFLSMRSHIWTDTDKDRTGMLPFVFDDSFGFEQYVDYALDVPMYFAYRNGKYVDCTGMTFRQFLAGKLPCLPGELPTYNDWENHLTTIFPEVRLKRYMEMRGADGGPWRRLCALPAFWVGLLYDEDVLQSVLDLTADWTPAEREMLRNKVPVTGLKTPFRDGLLKHVAEDVLKLAKDGLERRGYKEVGFLNAVTEVVRTGVTPAENLLEMYNGEWGQSVDPVFQELLY”, which “soluble on expression in E. coli” value is on record?
**A.** soluble

**Q.** With “MNQPSYTSGRQDVALLATTVGDAFDATVARHAEREALVVRHQRLRYSWRQLAERVDAYARAFIALGLRPGERLGIWAPNCAEWCITQFASAKVGAVLVNINPAYRSSELEYALKQSGCSWLICADAFKTSDYHAMLGDLLPELARARPGELASERLPELRGVISLAERAPAGFLHWQGLPGLAAAVGAEELRQRQASLQFDEPINIQYTSGTTGFPKGATLSHYNILNNGYMVGESLGLGAEDRLVIPVPLYHCFGMVMGNLGCVTHGSTMIYPAPSFDAEATLLAVAEERATALYGVPTMFIAELDHPRRREFDLSSLRTGIMAGATCPIEVMRRVIGDMHMAEVQIAYGMTETSPVSLQTGPDDGLELRVTTVGRTQPRLESKIVDQTGRVVPRGEIGELCTRGYSVMLGYWNDPQATAEAIDPARWMHTGDLAVMDDDGYVRIVGRSKDMIIRGGENIYPRELEEFFFTHPAVADVQVIGIPDERYGEEIVAWIKLHPGHHADDEQLRAFCKARIAHFKIPRHFKFVDEFPMTVTGKIQKFRMREISIEEIRLLALRQGR” as the sequence, how does the “soluble on expression in E. coli” value read?
**A.** not soluble

**Q.** Which “soluble on expression in E. coli” value does the source give for “MSLSRLSSPQTFSRVFIVARGAATGHAVAPSSDNSIGYFEKIAYRFKGIPLPTETEAPKSMFDACNKEWSAPELLPSVPKDFKEHPDRDLTNYPYPSRPMYPPKTRLLMMPDSWFTAFQKVTGTSGPYLFFGGLFAFLVNKELWVFEEQGHMTVGWILFYLLVSRTAGYKIDAGLYKDYQERVGFFKGLIQEDLKEAVDFRKTSAAQTASFAALKEGMPTSLKDSMQLQLEAAYRKNVQTISNEIKRRIEYLKETEETKARFERDQLLKLINDSVEKQVSQKDFQEKFLQNAIQQLKGIAV” here?
**A.** not soluble

**Q.** Which “soluble on expression in E. coli” value does the source give for “MSLLFIFVVQSFAALSVEELTWDNGDTLLKFLQRNSIPMSLYYGLDREDQELASDIAYKIKYQVLKDENNNIEQVLIPISDDLQIHIYKDKDGQYTLAFTPVSYQKEDRILHLTIKSSAYQDVYEESGSSTLARAMVRAFRGSINFRNIQKGDEVTLYYEQKRRMGKLWGDINIKMAMVEINKSAREVFSYNDIFYDRDGKELESFLLTKPVNYTRISSPFTTARYHPILKRYRAHLGIDYAAPTGTPVKSAGKGVVTFIGTKGGYGNVIQIKHDSGYMTLYAHLSRFAKIKNGQKVNQGQVIAYVGSTGMSTGPHLHFGVYLNNKAINPASVVKIAKSELSGKAKENFKHIIAGYEQVVKEALASNQPNPPKEEDFENYIEGHHHHHH” here?
**A.** soluble

**Q.** Which “soluble on expression in E. coli” value does the source give for “MGSDKIHHHHHHMSQRLQALYGLKWNPFSPELPLEALYVPPRVENFCWRIENALVREGGFAMIHGEPGTGKSVVMRVLAEKLERLTDLTVVSINHPQSNLADFYREMGDIFGLELRPHNRWGGFRSLRDRWMSHLQSTRRRPILLIDEAQEMSPGVLNELRLMASARFDSQPLLCVVLAGDTRLTDKLRRDELLPLGSRIRSRLGTEKASADDLLACLDHLLASAGAPQLMTPPLRHTLCEHALGNYRVLTTLANELLTTAAQRELSELDEKLYFEVFAPSTQSSRRTPARQPNGAR” here?
**A.** not soluble

**Q.** Which “soluble on expression in E. coli” value does the source give for “KGKSFIWIKRQLDPKVAEEVKALGLENFVFEKELKRHYPMGNLFAHVIGFTDIDGKGQEGLELSLEDSLHGEDGAEVVLRDRQGNIVDSLDSPRNKAPKNGKDIILSLD” here?
**A.** not soluble

**Q.** With “MSLENAGSRPFLADFNGFSYLELKGLHTFERDLGEKMALEMVFLARGPSGLLLYNGQKTDGKGDFVSLALHNRHLEFRYDLGKGAAIIRSKEPIALGTWVRVFLERNGRKGALQVGDGPRVLGESPVPHTMLNLKEPLYVGGAPDFSKLARGAAVASGFDGAIQLVSLRGHQLLTQEHVLRAVDVAPFAGEGHHHHHH” as the sequence, how does the “soluble on expression in E. coli” value read?
**A.** soluble

**Q.** Which “soluble on expression in E. coli” value does the source give for “MKKLKVMTVFGTRPEAIKMAPLVLELKKYPEIDSYVTVTAQHRQMLDQVLDAFHIKPDFDLNIMKERQTLAEITSNALVRLDELFKDIKPDIVLVHGDTTTTFAGSLAAFYHQIAVGHVEAGLRTGNKYSPFPEELNRQMTGAIADLHFAPTGQAKDNLLKENKKADSIFVTGNTAIDALNTTVRDGYSHPVLDQVGEDKMILLTAHRRENLGEPMENMFKAIRRIVGEFEDVQVVYPVHLNPVVREAAHKHFGDSDRVHLIEPLEVIDFHNFAAKSHFILTDSGGVQEEAPSLGKPVLVLRDTTERPEGVEAGTLKLAGTDEENIYQLAKQLLTDPDEYKKMSQASNPYGDGEASRRIVEELLFHYGYRKEQPDSFTGKGSHHHHHH” here?
**A.** soluble

**Q.** For “MGSDKIHHHHHHMPEFRKDPIIKRWVIIATERAKRPHDFARTKVEEVREGFCPFDYGNEHTTPPEIFAFRPADTEPNTPGWWVRVVPNKFPAVDPNAPLRKYGRGMYDAAMGFGYHDVVVETPDHNSHLAVMDYKNVEEVIWAYKIRYEQLMKDERIKYILIFKNHGRDAGASLSHPHSQIIALPIMPKRVQEELDGSKEYYEYKERCPFCDIIDEEKRERERIVEENDHFIALEPFAARFPFETWILPKRHMNSFHLISEDEVGSLAKILKNVLYRIYAALDNPPYNLLIHTAPTSLEGKDYYHWHIEIFPRLTKVAGFEWGTGFYINTVPPEDAARYLREVSLEQV”, which “soluble on expression in E. coli” value is on record?
**A.** not soluble
